In US20260242478A1 (published 2026):
Where no end group is shown, it is not given here.

How the values were obtained:
[1] = biological target: T1, Anti-CD28 Fab (SEQ ID NOs: 696, 697); experiment: phage binding ELISA on anti-CD28 Fab plate; competitor: CD28 antigen pre-incubated in the wells
T1 construct: The Fab was biotinylated and captured on neutravidin coated plates in the phage ELISA
T1 sequence (VH, as listed by the source, chain 1 of 2): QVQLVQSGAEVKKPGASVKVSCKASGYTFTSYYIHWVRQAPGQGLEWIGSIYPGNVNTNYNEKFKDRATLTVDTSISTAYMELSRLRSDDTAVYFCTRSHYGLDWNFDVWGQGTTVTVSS
T1 sequence (VL, as listed by the source, chain 2 of 2): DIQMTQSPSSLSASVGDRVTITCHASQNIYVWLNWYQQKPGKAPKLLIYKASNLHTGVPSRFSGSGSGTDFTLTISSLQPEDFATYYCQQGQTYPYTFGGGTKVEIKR
Description: (§1) After panning, phage infected bacteria were plated out and colonies picked into 96 well blocks. Clonal phage was then amplified and separated from bacterial cells via centrifugation.
(§2) Clonal phage were harvested as crude supematants and screened via standard ELISAs. […] Prior to the addition of clonal phage, wells were incubated with blocking buffer and CD28 antigen or blocking buffer alone. Without washing or aspirating, clonal phage supematants were then added to the wells and incubated for a short time. Wells were then washed followed by detection of bound phage using a horse radish conjugated anti-M13 antibody. Clonal phage of interest were then sent for sequence analysis.

[2] = biological target: T1, Anti-CD28 Fab (SEQ ID NOs: 696, 697); experiment: phage binding ELISA; biotinylated anti-CD28 Fab on neutravidin plate, bound phage detected with anti-M13 HRP;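 note: crude supernatants of clonal phage screened, wells pretreated with blocking buffer with or without CD28 antigen before brief phage incubation, washed, then bound phage detected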
[3] = biological target: Anti-CD28 Fab (SEQ ID NOs: 696, 697); experiment: phage binding ELISA on anti-CD28 Fab; wells first incubated with CD28 antigen as competitor
Target sequence in this assay (VH, as listed by the source, chain 1 of 2): as the sequence (VH, as listed by the source, chain 1 of 2) above
Target sequence in this assay (VL, as listed by the source, chain 2 of 2): as the sequence (VL, as listed by the source, chain 2 of 2) above
Description: as §1, §2

[4] = biological target: Anti-CD28 Fab (SEQ ID NOs: 696, 697); experiment: phage binding ELISA; biotinylated anti-CD28 Fab on neutravidin plate, clonal phage supernatant, anti-M13 HRP detection
Target sequence in this assay (VH, as listed by the source, chain 1 of 2): as the sequence (VH, as listed by the source, chain 1 of 2) above
Target sequence in this assay (VL, as listed by the source, chain 2 of 2): as the sequence (VL, as listed by the source, chain 2 of 2) above

[5] = biological target: T2, Anti-CD28 Fab (SEQ ID NOs: 696, 697); experiment: phage ELISA; biotinylated anti-CD28 Fab on neutravidin plate, clonal phage supernatant, anti-M13 HRP detection;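 note: crude supernatants of single phage clones picked after panning were screened for binding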
T2 construct: In the phage ELISA the Fab was biotinylated and captured on neutravidin coated plates
T2 sequence (VH, as listed by the source, chain 1 of 2): as the sequence (VH, as listed by the source, chain 1 of 2) above
T2 sequence (VL, as listed by the source, chain 2 of 2): as the sequence (VL, as listed by the source, chain 2 of 2) above
Description: as §1, §2

[6] = biological target: T2, Anti-CD28 Fab (SEQ ID NOs: 696, 697); experiment: phage ELISA; Fab-coated wells pre-incubated with CD28 antigen as competitor, anti-M13 HRP detection;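 note: crude clonal phage supernatants screened by ELISA, comparing wells pre-treated with CD28 antigen in blocker against wells given blocker only, bound phage read via HRP-linked anti-M13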
Description: as §1, §2

[7] = biological target: T3, Anti-CD28 Fab (SEQ ID NOs: 696, 697); experiment: phage ELISA; biotinylated anti-CD28 Fab on neutravidin plate, clonal phage supernatant, anti-M13 HRP detection; remark: listed apart in the source;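 note: crude supernatants of single phage clones picked after panning were screened for binding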
T3 construct: In the phage ELISA the Fab was biotinylated and captured on neutravidin coated plates
T3 sequence (VH, as listed by the source, chain 1 of 2): as the sequence (VH, as listed by the source, chain 1 of 2) above
T3 sequence (VL, as listed by the source, chain 2 of 2): as the sequence (VL, as listed by the source, chain 2 of 2) above
Description: as §1, §2

[8] = biological target: T3, Anti-CD28 Fab (SEQ ID NOs: 696, 697); experiment: phage ELISA on anti-CD28 Fab pre-incubated with CD28 antigen as competitor, anti-M13 HRP detection
[9] = biological target: Anti-CD28 Fab (SEQ ID NOs: 696, 697); experiment: phage binding ELISA; captured anti-CD28 Fab pre-incubated with CD28 antigen as competitor, anti-M13 HRP detection
Target sequence in this assay (VH, as listed by the source, chain 1 of 2): as the sequence (VH, as listed by the source, chain 1 of 2) above
Target sequence in this assay (VL, as listed by the source, chain 2 of 2): as the sequence (VL, as listed by the source, chain 2 of 2) above

[10] = biological target: Anti-CD28 Fab (SEQ ID NOs: 696, 697); experiment: phage binding ELISA; biotinylated anti-CD28 Fab on neutravidin plate, clonal phage supernatant, anti-M13 HRP detection; remark: listed apart in the source

YCEGHLAQYMWKCL (Tested as clonal phage supernatant) [Phage-750]
Anti-CD28 Fab signal in the presence of CD28 [1]: 0.12
Anti-CD28 Fab (SEQ ID NOs: 696, 697) signal [2]: 1.91

YCDGHSALYMWKCL [Phage-726]
Anti-CD28 Fab signal in the presence of CD28 [3]: 0.08
Anti-CD28 Fab signal (phage binding ELISA) [4]: 1.96

B1: Phage-746 (peptide)
peptide: YCAGHMPEYIDKCL
notes: tested as crude clonal phage supernatant
Anti-CD28 Fab signal (phage binding ELISA) [5]: 1.92
Anti-CD28 Fab signal in the presence of CD28 (phage binding ELISA) [6]: 0.06

YCDGHSSEYMIKCL [Phage-727]
Anti-CD28 Fab signal in the presence of CD28 [3]: 0.06
Anti-CD28 Fab signal (phage binding ELISA) [4]: 1.95

B2: Phage-747 (peptide)
peptide: YCAGHSPEFMEKCL
notes: as for B1
Anti-CD28 Fab signal (phage binding ELISA) [5]: 1.91
Anti-CD28 Fab signal in the presence of CD28 (phage binding ELISA) [6]: 0.06

B3: Phage-740 (peptide)
peptide: YCMGHAPEYMEKCL
notes: as for B1
Anti-CD28 Fab signal (phage binding ELISA) [5]: 1.93
Anti-CD28 Fab signal in the presence of CD28 (phage binding ELISA) [6]: 0.07

YCAGHLPQYIAKCL (Tested as clonal phage supernatant) [Phage-763]
Phage binding ELISA, Anti-CD28 Fab signal [7]: 1.9
Phage binding ELISA, Anti-CD28 Fab signal in the presence of CD28 [8]: 0.09

B4: Phage-748 (peptide)
peptide: YCDGHLNEYMEKCL
notes: as for B1
Anti-CD28 Fab signal (phage binding ELISA) [5]: 1.91
Anti-CD28 Fab signal in the presence of CD28 (phage binding ELISA) [6]: 0.06

YCEGHLSEYMAKCL [Phage-734]
Anti-CD28 Fab signal in the presence of CD28 [3]: 0.2
Anti-CD28 Fab signal (phage binding ELISA) [4]: 1.94

YCAGHLEEYMDKCL (Tested as clonal phage supernatant) [Phage-761]
Anti-CD28 Fab signal in the presence of CD28 [1]: 0.06
Anti-CD28 Fab (SEQ ID NOs: 696, 697) signal [2]: 1.9

B5: Phage-707 (peptide)
peptide: YCDGHSHEYMEKCL
modifications: cysteine pairing not given here; also: displayed on phage by fusion to pIII, pIII and linker sequence not given here
Anti-CD28 Fab signal in the presence of CD28 [9]: 0.06
Anti-CD28 Fab (SEQ ID NOs: 696, 697) signal [10]: 2.01

B6: Phage-738 (peptide)
peptide: YCEGHRAEYMEKCL
notes: as for B1
Anti-CD28 Fab signal (phage binding ELISA) [5]: 1.93
Anti-CD28 Fab signal in the presence of CD28 (phage binding ELISA) [6]: 0.06

YCDGHAPEYMKKCL (Tested as clonal phage supernatant) [Phage-756]
Anti-CD28 Fab signal in the presence of CD28 [1]: 0.06
Anti-CD28 Fab (SEQ ID NOs: 696, 697) signal [2]: 1.9

YCDGHLPEYLGKCL [Phage-724]
Anti-CD28 Fab signal in the presence of CD28 [3]: 0.08
Anti-CD28 Fab signal (phage binding ELISA) [4]: 1.96

YCDGHLKEYMAKCL (Tested as clonal phage supernatant) [Phage-764]
Phage binding ELISA, Anti-CD28 Fab signal [7]: 1.9
Phage binding ELISA, Anti-CD28 Fab signal in the presence of CD28 [8]: 0.07

B7: Phage-745 (peptide)
peptide: YCEGHSMEYMAKCL
notes: as for B1
Anti-CD28 Fab signal (phage binding ELISA) [5]: 1.92
Anti-CD28 Fab signal in the presence of CD28 (phage binding ELISA) [6]: 0.07

YCDGHSPEHIRKCL [Phage-732]
Anti-CD28 Fab signal in the presence of CD28 [3]: 0.11
Anti-CD28 Fab signal (phage binding ELISA) [4]: 1.94

B8: Phage-708 (peptide)
peptide: YCQGHLPEYMSKCL
modifications: cysteine pairing not given here; also: displayed on phage by fusion to pIII, pIII and linker sequence not given here
Anti-CD28 Fab signal in the presence of CD28 [9]: 0.06
Anti-CD28 Fab (SEQ ID NOs: 696, 697) signal [10]: 2.01

YCEGHLSQYMEKCL [Phage-731]
Anti-CD28 Fab signal in the presence of CD28 [3]: 0.08
Anti-CD28 Fab signal (phage binding ELISA) [4]: 1.95

YCAGHAPQYMEKCL (Tested as clonal phage supernatant) [Phage-762]
Phage binding ELISA, Anti-CD28 Fab signal [7]: 1.9
Phage binding ELISA, Anti-CD28 Fab signal in the presence of CD28 [8]: 0.08

YCAGHLEIYMNKCL [Phage-733]
Anti-CD28 Fab signal in the presence of CD28 [3]: 0.07
Anti-CD28 Fab signal (phage binding ELISA) [4]: 1.94

YCEGHSSEYMEKCL (Tested as clonal phage supernatant) [Phage-752]
Anti-CD28 Fab signal in the presence of CD28 [1]: 0.06
Anti-CD28 Fab (SEQ ID NOs: 696, 697) signal [2]: 1.91
